The record followed here is article PMC6718144, “Structure of the archaeal chemotaxis protein CheY in a domain-swapped dimeric conformation” (Acta Crystallographica. Section F, Structural Biology …, 2019).

The data set deals with the molecule itself. Nature of the data set: cross-linking; glutaraldehyde, incubation 1, 2, 5 and 10 min before quenching; Coomassie-stained SDS-PAGE.

B1: CheF from Pyrococcus horikoshii (PhCheF), non-His-tagged (natural protein, P. horikoshii)
chain: MPIFEARVKVGISSSWVTSRKVSWRDAIAQIESDRIVVKYLKMGEVVGEDSFPFSALIDLGVRIPDELKLNPEKDHFGIKFYIPGRGELLVIFTIEENLLIYDEKKFSEFVHKVFEVLINGKTVMLQLARIIGGAVNMESKWEEGWLRVIKVKSARTQKTERSIVVIIKDKRPVSIFSDLEDIEIEEVDMNGKRVRAWKIRHFHIDQSVTSYLYIPDKQTQLYVLRYLLKYNPAIMEFIMKVSDDFPTLKSEFQEIMEKEIKELEALDEMEKQILVALYSGINPLELHQFLGVSEKEIEEIYDRMIDKGLLKIVMIRKIVDLTNEGRKIVNKLLKYGLVSM
notes: CheF, Pyrococcus horikoshii, ORF PH0494, UniProt O58230; also called PH0494; source: E. coli BL21 Gold (DE3); purified (heating to 80°C, SEC); as lysate supernatant in the pull-down
With B1, the stoichiometry N (usually a count of units in the complex or per binding partner) was 2.
